Test results published in patent publication US12018066.
Read-outs that look alike come from different tables or passages of the source.

Key:
[1] = biological target: SARS-CoV-2 spike protein receptor binding domain (RBD2) (SARS-CoV-2) (UniProt P0DTC2); assay: SPR sandwich binning, ligand B04
[2] = biological target: SARS-CoV-2 spike protein receptor binding domain (RBD2) (SARS-CoV-2) (UniProt P0DTC2); assay: SPR sandwich binning, ligand F07; light (intermediate) cell
[3] = biological target: SARS-CoV-2 spike protein receptor binding domain (RBD2) (SARS-CoV-2) (UniProt P0DTC2); assay: SPR sandwich binning, ligand E08
[4] = biological target: SARS-CoV-2 spike protein receptor binding domain (RBD2) (SARS-CoV-2) (UniProt P0DTC2); assay: SPR sandwich binning, ligand CR3022
[5] = biological target: SARS-CoV-2 spike protein receptor binding domain (RBD2) (SARS-CoV-2) (UniProt P0DTC2); assay: SPR sandwich binning, ligand H05
[6] = biological target: SARS-CoV-2 spike protein receptor binding domain (RBD2) (SARS-CoV-2) (UniProt P0DTC2); assay: SPR sandwich binning, ligand H01
[7] = biological target: SARS-CoV-2 spike protein receptor binding domain (RBD2) (SARS-CoV-2) (UniProt P0DTC2); assay: SPR sandwich binning, ligand E01
[8] = biological target: SARS-CoV-2 spike protein receptor binding domain (RBD2) (SARS-CoV-2) (UniProt P0DTC2); assay: SPR sandwich binning, ligand S01
[9] = biological target: SARS-CoV-2 spike protein receptor binding domain (RBD2) (SARS-CoV-2) (UniProt P0DTC2); assay: SPR sandwich binning, ligand Anti-His
[10] = biological target: SARS-CoV-2 spike protein receptor binding domain (RBD2) (SARS-CoV-2) (UniProt P0DTC2)
[11] = biological target: SARS-CoV-2 spike protein receptor binding domain (RBD2) (SARS-CoV-2) (UniProt P0DTC2); assay: SPR, immobilized antibody, RBD injected, 1:1 fit
[12] = biological target: SARS-CoV-2 spike protein receptor binding domain (RBD2) (SARS-CoV-2) (UniProt P0DTC2); assay: SPR sandwich binning, ligand G07

## CR3022 (commercial anti-RBD2 antibody, reference IgG)
[1]
  normalized analyte binding to RBD2 held by the immobilized ligand: 1.64
[2]
  normalized analyte binding to RBD2 held by the immobilized ligand: 0.23
[3]
  normalized analyte binding to RBD2 held by the immobilized ligand: -0.1
[4]
  normalized analyte binding to RBD2 held by the immobilized ligand: -0.14
[5]
  normalized analyte binding to RBD2 held by the immobilized ligand: -0.14
[6]
  normalized analyte binding to RBD2 held by the immobilized ligand: -0.01
[7]
  normalized analyte binding to RBD2 held by the immobilized ligand: 1.63
[8]
  normalized analyte binding to RBD2 held by the immobilized ligand: 1.83
[9]
  normalized analyte binding to RBD2 held by the immobilized ligand: 1.45
[10]
  Kd: 114 nM
[11]
  Kd: 110 nM
[12]
  normalized analyte binding to RBD2 held by the immobilized ligand: 1.35
